Assay results as given in patent US20260015423A1 (STAIDSON BIOPHARMA, published 2026).
Residue numbers refer to the chain shown, from its start.

B1: chimeric anti-human PD-L1 antibody Mab 2-04 (antibody, human IgG1, kappa, V domains shown)
VH: QVQLQQSGAELARPGASVKMSCKASGYTFTDYAMHWIKQRPGQGLEWIGFIIPSGDHTDYNQNFKDRATLTADKSSNTAYMQLTSLTPDDSAVYFCARGHGFHLYVMDYWGQGTSVTVSS
VL: DIVMTQSPATLSVTPGDGVSLSCRASQSIADYLHWYQQKSHESPRLLIKYASQSISGIPSRFSGSGSGSDFTLSISSVEPEDVGVYFCQNGHSFPPTFGTGTKLELKR
notes: Mouse variable domains on human IgG1 / kappa constant regions
B2: chimeric anti-human PD-L1 antibody Mab 3-16 (antibody, human IgG1, kappa, V domains shown)
VH: DVQLVESGGGLVQPGGSRKLSCAASGFTFGGFGMHWVRQAPEKGLEWVAYITGDSSTIYYADRVRGRFTISRDNPRNILFLQMTSLGSEDTAMYYCVRGPPGTWAYWGQGTLVTVSA
VL: DIVLTQSPASLAVSLGQRATFSCRASESVEFYGTTLVQWYQQRPGQPPKLLIYGASNVESGVPARFTGSGSGTDFSLNIHPVEEDDIAMYFCQQIRKVPWTFGGGTKLEIRR
notes: Mouse variable domains on human IgG1 / kappa constant regions; also called parent antibody Mab 3-16
B3: humanized anti-human PD-L1 antibody Hum-5 (antibody, human IgG1, kappa, V domains shown)
VH: EVQLVESGGGLVQPGGSLRLSCAASGFTFGGFGMHWVRQAPGKGLEWVSYITGDSSTIYYADRVRGRFTISRDNAKNSLYLQMNSLRAEDTAVYYCVRGPPGTWAYWGQGTLVTVSS
VL: EIVLTQSPATLSLSPGERATLSCRASESVEFYGTTLVQWYQQKPGQAPRLLIYGASNVESGIPARFSGSGSGTDFTLTISSLEPEDFAVYYCQQIRKVPWTFGQGTKVEIKR
B4: humanized anti-human PD-L1 antibody Hum-7 (antibody, human IgG1, kappa, V domains shown)
VH: B3 VH
VL: B3 VL with Y91F
B5: humanized anti-human PD-L1 antibody Hum-6 (antibody, human IgG1, kappa, V domains shown)
VH: B3 VH
VL: B3 VL with A47P
B6: chimeric anti-human PD-L1 antibody Mab 3-14 (antibody, human IgG1, kappa, V domains shown)
VH: QVQLQQSGAELVKPGTSVKLSCKASGYTFSMYYMFWVKQRPGQGLEWIGQINPSNGRTNFNEKFKSKATLTVDKSSTTAYMQLSSLTSEDSAVYYCTREISYDEFAYWGQGTLVTVSA
VL: DVVMTQTPLSLPVSLGDQASISCRSSQSLVHSNGNTYLHWYLQKPGQSPKLLIYRVSNRFSGVPDRFSGSGSGTDFTLKISRVEAEDLGIYFCSQSAHLPYTFGGGTKLEIKR
notes: as for B1
B7: chimeric anti-human PD-L1 antibody Mab 3-18 (antibody, human IgG1, kappa, V domains shown)
VH: EVHLQESGPSLVKPSQTLSLTCSVTGDSITSGYWNWIRQFPGNKLEYMGYVSYSGSTYYNPSLKSRISITRDTSKNQYYLQLSSVTTEDTATYYCANYYGDNWPFPLDYWGQGTSVIVSS
VL: DIVMTQAAPSVPVTPGESVSISCRSNKSLLHSNGNTYLYWFLQRPGQSPQLLIYRMSNLASGVPDRFSGSGSGTAFTLTISRVEAEDVGVYYCMQHLEYPFTFGGGTKLEIER
notes: as for B1
B8: chimeric anti-human PD-L1 antibody Mab 3-17 (antibody, human IgG1, kappa, V domains shown)
VH: B7 VH
VL: DIVMTQSPATLSVTPGDRVSLSCRASQSINGNLHWFQQKSHESPRLLIKYASQSISGIPSRFSGSGSGSDFTLRINSVEPEDVGVYYCQNGHGFPYTFGGGTKLEIKR
notes: as for B1
B9: chimeric anti-human PD-L1 antibody Mab 1-01 (antibody, human IgG1, kappa, V domains shown)
VH: EVQLQQSGPELVKPGASVKMSCKASGYSFSGYFLNWVKQSHGKSLEWIGRINPSNDDTVYSQKFKDRATLSLDRSSGTVHMELRSLTSEDSAVYYCARFGHASWYFDVWGAGTTVTVSS
VL: QIVLTQSPAIMSASPGEKVTMTCSARSSVIYMSWYQQKPGSSPRLLIYDTSHLASGVPVRFSGSGSGTFYSLIISRVEAEDAATYYCQQWSTYPLTFGAGTRLELNR
notes: as for B1
B10: chimeric anti-human PD-L1 antibody Mab 1-02 (antibody, human IgG1, kappa, V domains shown)
VH: B9 VH with F106L
VL: B9 VL with V29I, P39T, Y70F, V77M, N106K
notes: as for B1

biological target: T1, Europium-conjugated human PD-L1 (human, UniProt Q9NZQ7 19-238, limits assumed, Europium conjugate (site not stated)); experiment: HTRF blocking assay: Europium-human PD-L1 with Alexa-647 human PD-1 as the blocked ligand, antibody titrated
T1 construct: also called Europium-human PD-L1; PD-L1 (HTRF donor protein)
T1 sequence (Q9NZQ7 19-238 limits assumed): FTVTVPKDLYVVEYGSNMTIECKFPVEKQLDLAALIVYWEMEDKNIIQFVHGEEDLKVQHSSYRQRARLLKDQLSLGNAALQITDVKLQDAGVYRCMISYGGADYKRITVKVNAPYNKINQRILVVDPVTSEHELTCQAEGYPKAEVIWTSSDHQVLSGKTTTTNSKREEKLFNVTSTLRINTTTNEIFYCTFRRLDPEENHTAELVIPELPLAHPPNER

IC50 (read off the curve) [µg/mL] | Binder
~0.3 | B1

biological target: T1, Europium-conjugated human PD-L1; experiment: HTRF competition assay: Europium-human PD-L1 with Alexa-647-conjugated Mab 3-16 as competitor, unlabelled Mab 3-16 titrated

IC50 (read off the curve) [µg/mL] | Binder
~0.2 | B2

biological target: T1, Europium-conjugated human PD-L1; experiment: HTRF competition assay: Europium-human PD-L1 with Alexa-647-conjugated Mab 3-16 as competitor, unlabelled antibody titrated

IC50 (read off the curve) [µg/mL] | Binder
~0.1 | B3
~0.1 | B4
~0.1 | B5

biological target: T2, cynomolgus PD-L1 (Sino biological, 90251-C08H) (cynomolgus, UniProt G7PSE7 19-238); experiment: BLI (Octet Red), antibody captured on anti-human Fc sensors, cynomolgus PD-L1 as analyte
T2 construct: Bought recombinant protein used as analyte in BLI; not shown: C-terminal polyhistidine tag of the bought product (Sino Biological 90251-C08H)
T2 sequence (G7PSE7 entry or part of it C08H C08H limits assumed): as the sequence (Q9NZQ7 19-238 limits assumed) above, with A33T, A34S, S62N, R68Q, Q82R, F173L, T185A, T192I, H215L counted along it

Kd [pM] | koff [s⁻¹] | kon [M⁻¹ s⁻¹] | Binder
863 | 8.34e-05 | 96700 | B2
915 | 8.65e-05 | 94500 | B3
≤ 1.1 | < 1e-07 | 73100 | B4
2.08 | 1.33e-07 | 63900 | B5

biological target: T3, human PD-L1 (Sino biological, 10084-H08H) (human, UniProt Q9NZQ7 19-238); experiment: BLI (Octet Red), antibody captured on anti-human Fc sensors, human PD-L1 as analyte
T3 construct: Bought recombinant protein used as analyte in BLI
T3 sequence (Q9NZQ7 19-238 limits assumed): as the sequence (Q9NZQ7 19-238 limits assumed) above

koff [s⁻¹] | kon [M⁻¹ s⁻¹] | Kd [pM] | Binder
1.19e-07 | 286000 | – | B2
3.92e-05 | 310000 | 126 | B3
1.28e-07 | 302000 | < 1 | B4
< 1e-07 | 292000 | < 1 | B5

biological target: human PD-L1 on cells (Raji cell line expressing human PD-L1; human PBMCs) (human, UniProt Q9NZQ7 19-290); experiment: cell-based or functional assay
Sequence (Q9NZQ7 19-290): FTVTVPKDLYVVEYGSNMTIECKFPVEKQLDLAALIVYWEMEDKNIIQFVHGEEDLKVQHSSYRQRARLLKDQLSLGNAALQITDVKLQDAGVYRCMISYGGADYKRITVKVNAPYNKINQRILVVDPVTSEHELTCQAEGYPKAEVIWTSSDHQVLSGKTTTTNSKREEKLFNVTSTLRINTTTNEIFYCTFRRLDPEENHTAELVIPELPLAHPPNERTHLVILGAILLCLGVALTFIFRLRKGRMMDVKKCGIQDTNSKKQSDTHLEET

EC50(nM), IL-2 production by SEB stimulated human PBMCs [nM] | Binder
5.41 | B2

biological target: T1, Europium-conjugated human PD-L1; experiment: HTRF competition assay: Europium-human PD-L1 with Alexa-647-conjugated Mab 3-16 as competitor, unlabelled Mab 3-16 titrated; remark: another data set of the same source

IC50 (read off the curve) [µg/mL] | Binder
~0.2 | B2

biological target: T1, Europium-conjugated human PD-L1; experiment: HTRF blocking assay: Europium-human PD-L1 with Alexa-647 human PD-1 as the blocked ligand, antibody titrated; remark: another data set of the same source

IC50 (read off the curve) [µg/mL] | Binder
~0.2 | B2
~0.2 | B6
~0.2 | B7
~0.2 | B8

biological target: T3, human PD-L1 (Sino biological, …); experiment: BLI (Octet Red), antibody captured on anti-human Fc sensors, human PD-L1 as analyte; remark: another data set of the same source

Kd [pM] | koff [s⁻¹] | kon [M⁻¹ s⁻¹] | Binder
279 | 0.000241 | 864000 | B1
146 | 6.17e-05 | 423000 | B2
13000 | – | – | B9
16000 | – | – | B10
124 | 4.05e-05 | 327000 | B6
1160 | 0.000408 | 351000 | B7
1500 | 0.000626 | 417000 | B8

biological target: T3, human PD-L1 (Sino biological, …); experiment: BLI (Octet Red), antibody captured on anti-human Fc sensors, human PD-L1 as analyte; Table 8 run, alongside humanized Hum-5/6/7

Kd [pM] | Binder
< 1 | B2
